Measured values from PMC11947305 (Nature Communications, 2025).

T1: Flag-tagged HPS4 wild-type (human, UniProt Q9NQG7 1-708)
T1 sequence: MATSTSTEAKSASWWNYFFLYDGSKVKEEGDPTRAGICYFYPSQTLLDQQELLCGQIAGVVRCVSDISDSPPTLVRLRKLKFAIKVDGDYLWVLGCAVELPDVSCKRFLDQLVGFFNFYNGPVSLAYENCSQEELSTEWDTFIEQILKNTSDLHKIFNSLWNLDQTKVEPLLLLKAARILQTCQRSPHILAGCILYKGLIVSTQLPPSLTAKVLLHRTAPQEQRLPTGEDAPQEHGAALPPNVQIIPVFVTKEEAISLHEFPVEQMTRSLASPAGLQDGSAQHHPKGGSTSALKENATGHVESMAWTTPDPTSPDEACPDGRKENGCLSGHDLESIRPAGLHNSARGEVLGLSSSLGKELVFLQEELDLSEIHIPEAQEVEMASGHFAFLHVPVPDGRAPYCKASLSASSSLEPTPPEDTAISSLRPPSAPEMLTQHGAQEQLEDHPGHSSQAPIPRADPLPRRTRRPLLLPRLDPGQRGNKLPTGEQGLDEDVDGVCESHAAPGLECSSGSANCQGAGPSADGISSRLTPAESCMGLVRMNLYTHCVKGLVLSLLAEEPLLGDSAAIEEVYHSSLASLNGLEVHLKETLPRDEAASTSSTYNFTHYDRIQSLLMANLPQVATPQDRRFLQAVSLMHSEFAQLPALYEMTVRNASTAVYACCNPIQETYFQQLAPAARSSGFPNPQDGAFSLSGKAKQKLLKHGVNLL

T2: GST-tagged human HPS4 (residues 1-708) (human, UniProt Q9NQG7 1-708)
T2 sequence: T1 sequence

B1: GST-tagged human HPS4 Δ289-518 (natural protein)
chain: MATSTSTEAKSASWWNYFFLYDGSKVKEEGDPTRAGICYFYPSQTLLDQQELLCGQIAGVVRCVSDISDSPPTLVRLRKLKFAIKVDGDYLWVLGCAVELPDVSCKRFLDQLVGFFNFYNGPVSLAYENCSQEELSTEWDTFIEQILKNTSDLHKIFNSLWNLDQTKVEPLLLLKAARILQTCQRSPHILAGCILYKGLIVSTQLPPSLTAKVLLHRTAPQEQRLPTGEDAPQEHGAALPPNVQIIPVFVTKEEAISLHEFPVEQMTRSLASPAGLQDGSAQHHPKGGGPSADGISSRLTPAESCMGLVRMNLYTHCVKGLVLSLLAEEPLLGDSAAIEEVYHSSLASLNGLEVHLKETLPRDEAASTSSTYNFTHYDRIQSLLMANLPQVATPQDRRFLQAVSLMHSEFAQLPALYEMTVRNASTAVYACCNPIQETYFQQLAPAARSSGFPNPQDGAFSLSGKAKQKLLKHGVNLL
B2: His-tagged mouse Rab9A Q66L (residues 2-199) (natural protein)
chain: AGKSSLFKIILLGDGGVGKSSLMNRYVTNKFDSQLFHTIGVEFLNKDLEVDGHFVTMQIWDTAGLERFRSLRTPFYRGSDCCLLTFSVDDSQSFQNLSNWKKEFIYYADVKEPESFPFVILGNKTDIKERQVSTEEAQAWCKDNGDYPYFETSAKDSTNVAAAFEEAVRRILATEDRSEHLIQTDTVNLHRKPKPNSS
B3: HPS1 (untagged human HPS1, residues 1-700) (natural protein)
chain: MKCVLVATEGAEVLFYWTDQEFEESLRLKFGQSENEEEELPALEDQLSTLLAPVIISSMTMLEKLSDTYTCFSTENGNFLYVLHLFGECLFIAINGDHTESEGDLRRKLYVLKYLFEVHFGLVTVDGHLIRKELRPPDLAQRVQLWEHFQSLLWTYSRLREQEQCFAVEALERLIHPQLCELCIEALERHVIQAVNTSPERGGEEALHAFLLVHSKLLAFYSSHSASSLRPADLLALILLVQDLYPSESTAEDDIQPSPRRARSSQNIPVQQAWSPHSTGPTGGSSAETETDSFSLPEEYFTPAPSPGDQSSGSTIWLEGGTPPMDALQIAEDTLQTLVPHCPVPSGPRRIFLDANVKESYCPLVPHTMYCLPLWQGINLVLLTRSPSAPLALVLSQLMDGFSMLEKKLKEGPEPGASLRSQPLVGDLRQRMDKFVKNRGAQEIQSTWLEFKAKAFSKSEPGSSWELLQACGKLKRQLCAIYRLNFLTTAPSRGGPHLPQHLQDQVQRLMREKLTDWKDFLLVKSRRNITMVSYLEDFPGLVHFIYVDRTTGQMVAPSLNCSQKTSSELGKGPLAAFVKTKVWSLIQLARRYLQKGYTTLLFQEGDFYCSYFLWFENDMGYKLQMIEVPVLSDDSVPIGMLGGDYYRKLLRYYSKNRPTEAVRCYELLALHLSVIPTDLLVQQAGQLARRLWEASRIPLL

Tests used:
[1] = molecular target: B3; test: cryo-EM structure
[2] = molecular target: T1, Flag-tagged HPS4 wild-type; test: pull-down
[3] = molecular target: T2, GST-tagged human HPS4 (residues 1-708); test: SEC
[4] = molecular target: B1; test: SEC

Binder: B1
- binding result [1]: binds

Binder: B2
- binding result [2]: binds

Binder: B3
- binding result [3]: binds
- stoichiometry N [4]: 1
